Substitutions are numbered along the chain they refer to.
Legend:
[1] = target: T1, Flag-USP21 C221A (catalytically inactive mutant) (human, UniProt Q9UK80 1-565, C221A); test: pull-down; bacterially expressed GST or GST-FOXD1 immobilised (GST Protein Interaction Pull-Down Kit, Thermo Scientific), incubated with Flag-USP21 WT or C221A from HEK293T cells; analysed by Coomassie Brilliant Blue; conditions: both partners purified
T1 construct: also called C221A mutant; source: HEK293T, transfected, in lysate (co-IP); for the GST pull-down 'lysed from HEK293T cells' (methods), 'purified recombinant protein' (results)
T1 sequence (looked up): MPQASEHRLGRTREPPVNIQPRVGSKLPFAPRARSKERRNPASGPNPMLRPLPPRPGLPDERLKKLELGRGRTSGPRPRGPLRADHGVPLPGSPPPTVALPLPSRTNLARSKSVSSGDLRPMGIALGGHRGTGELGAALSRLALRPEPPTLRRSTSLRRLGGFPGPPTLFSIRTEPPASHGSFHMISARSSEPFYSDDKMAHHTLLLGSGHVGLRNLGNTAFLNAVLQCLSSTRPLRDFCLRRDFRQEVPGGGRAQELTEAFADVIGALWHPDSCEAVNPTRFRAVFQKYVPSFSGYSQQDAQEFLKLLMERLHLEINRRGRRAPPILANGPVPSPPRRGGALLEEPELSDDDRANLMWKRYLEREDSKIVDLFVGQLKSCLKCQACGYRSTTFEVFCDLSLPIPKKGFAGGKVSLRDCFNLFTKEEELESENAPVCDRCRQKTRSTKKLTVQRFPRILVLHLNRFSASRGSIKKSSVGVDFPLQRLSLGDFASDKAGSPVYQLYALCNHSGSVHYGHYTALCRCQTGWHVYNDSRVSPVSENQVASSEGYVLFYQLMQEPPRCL

[2] = target: T2, Flag-USP21 WT (ubiquitin-specific peptidase 21) (human, UniProt Q9UK80 1-565); test: as above; conditions: both partners purified
T2 construct: ubiquitin-specific peptidase 21 (USP21), wild type; overexpression plasmid bought from GeneChem; source: HEK293T, transfected, in lysate (co-IP); for the GST pull-down 'lysed from HEK293T cells' (methods), 'purified recombinant protein' (results)
T2 sequence (looked up): T1 sequence (looked up) with A221C

B1: GST-FOXD1 (natural protein, UniProt Q16676 1-465, looked up)
chain: MTLSTEMSDASGLAEETDIDVVGEGEDEEDEEEEDDDEGGGGGPRLAVPAQRRRRRRSYAGEDELEDLEEEEDDDDILLAPPAGGSPAPPGPAPAAGAGAGGGGGGGGAGGGGSAGSGAKNPLVKPPYSYIALITMAILQSPKKRLTLSEICEFISGRFPYYREKFPAWQNSIRHNLSLNDCFVKIPREPGNPGKGNYWTLDPESADMFDNGSFLRRRKRFKRQPLLPPNAAAAESLLLRGAGAAGGAGDPAAAAALFPPAPPPPPHAYGYGPYGCGYGLQLPPYAPPSALFAAAAAAAAAAAFHPHSPPPPPPPHGAAAELARTAFGYRPHPLGAALPGPLPASAAKAGGPGASALARSPFSIESIIGGSLGPAAAAAAAAQAAAAAQASPSPSPVAAPPAPGSSGGGCAAQAAVGPAAALTRSLVAAAAAAASSVSSSAALGTLHQGTALSSVENFTARISNC
notes: Forkhead box D1 (FOXD1) fused to GST; also called immobilized GST-FOXD1; purified GST-FOXD1; source: bacterially expressed; 'purified' (results)
B1: binds [1]; binds [2].
